Publication PMC8508679

Target: Trop2 ectodomain (N120Q, N208Q) (human) (UniProt P09758)
Experiment: crystal structure; X-ray, 2.81 Å; sitting drop vapor diffusion, 1.6 M ammonium sulfate, 0.5 M NaCl, 13.3 mM EDTA, 0.1 M MES pH 5.8, protein at 10 mg/mL; crystal contacts analysed with PISA

Trop2 ectodomain (N120Q, N208Q) (from UniProt P09758 27-274) (domain or fragment)
stoichiometry N: 2
